Drawing on publication PMC7021487, this text covers increase of the co-precipitated interaction against GFP Pavarotti without Trc for 1 substance.

In the experiment the target is GFP Pavarotti co-expressed with exogenous Trc (greater pool phosphorylated at S745) (D. melanogaster). Put plainly: co-IP; GFP Pavarotti (WT, S745A, or WT with co-expressed Trc) over-expressed in HEK 293 FT cells; lysate in coIP buffer (50 mM Tris pH 7.5, 150 mM NaCl, 1.5% Triton X-100, 1 mM EDTA, 1 mM NaVO3); precipitated with GFP-Trap-M (single chain anti-GFP) beads, washed 3x; blot for endogenous 14-3-3.

“endogenous 14-3-3 ξ (HEK 293 FT cells) (from UniProt P63104 1-245) (natural protein)” displayed an increase of the co-precipitated interaction against GFP Pavarotti without Trc of 60%.
